Data: patent publication US9526786B2, “Thermostabilization of proteins” (The Trustee of Columbia University in the City of New York, priority 2007, dated 2016)

Assays:
[1] = 37° C., absence of DTT
[2] = Michaelis-Menten kinetics of cocaine hydrolysis (absorbance at 240 nm); assay type: biochemical; conditions: cocaine
Description: The initial rates (of decay) were determined by following the change in the intrinsic absorbance of cocaine at 240 nm (6700 M^1 cm^1)(Xie et al., 1999) using a SpectraMax Plus 384 UV plate reader (Molecular Devices, Sunnyvale, Calif.) using SOFTmax Pro software (Version 3.1.2). The reaction was initiated by adding 100 μL of a 2× enzyme solution (100 mM phosphate buffer, pH 7.4 and 300 mM NaCl) to 100 μL of a 2× cocaine solution (50 μg/mL enzyme, 100 mM Phosphate Buffer, pH 7.4 and 300 mM NaCl). All assays were performed with 100 μM DTT unless indicated otherwise. Final cocaine concentrations were as follows: 125, 62.5, 31.25, 15.63, 7.81, 3.91, 1.95, and 0.977 μM. Vmax and Km values were calculated using Prism (GraphPad Software, San Diego). For stability measurements, wild type and mutant enzymes were diluted to 2× concentration and incubated at 37° C. for the times indicated. At the end of each time point, an aliquot was removed and kinetic behavior was observed as outlined above.
In vitro kinetic assays. […] Initial rates were then used to determine Michaelis-Menten parameters. To assess thermal stability, enzyme preparations were preincubated at 37° C. for various lengths of time, prior to measurement of residual activities (Table 1 and FIG. 23).
Determination of Catalytic Efficiency. To determine the catalytic activity a spectrophometric assay was performed. Samples of L169K/G173Q CocE were added to a 96-well UV permeable plate containing increasing cocaine concentrations (0.5, 2.5, 5, 12.5, 25, 50, 100, and 150 μM) to give a final concentration of 10 ng/ml CocE in a final volume of 200 μl. The change in absorbance at 240 nm was measured over 20 minutes, with readings every 10 seconds, by a SpectraMax Plus 384 UV plate reader (Molecular Devices, Sunnyvale, Calif.) using SOFTmax Pro software (Version 3.1.2). The change in absorbance was converted to the change in concentration and furthermore the rate of decay per mole enzyme is determined (Kcat). Kcat and Km of the enzyme are determined using Prism (GraphPad software, San Diego).

[3] = Temperature-dependent decay in esterase activity (30 min pre-incubation); assay type: biochemical
Description: FIG. 26 is a graph showing temperature-dependent decay in esterase activity. 50 ng/ml wild-type CocE and the mutants were pre-incubated for 30 min at temperatures indicated (° C.) and activity measured (Xie et al., 1999). The activity of each mutant remaining (as a percentage of the maximal activity, Vmax, without preincubation) following pre-incubation are illustrated. Wild-type CocE (open bars) appears to inactivate between 30-35° C. whereas T172R/G173Q (shaded bars) and L169K (solid) both display enhance thermal stability (inactivation at 40-45° C.).
To test whether the improved enzymatic stability at 37° C. represents improved thermal stability of the protein fold, the capacity of the CocE at progressively higher temperatures were assessed (FIG. 26). The activity of wt CocE plummets precipitously after 30 min at approximately 30-35° C. Both L169K and T172R/G173Q each are inactivated at a higher temperature (40-45° C.). Circular dichroism analysis (near UV analysis) at varying temperatures, comparing wt-CocE and T172R/G173Q have melting temperatures in concordance with the loss of catalytic activity.

[4] = Circular dichroism melting temperature of CocE proteins alone; assay type: physicochemical; conditions: circular dichroism, enzyme alone
Description: Further characterization of the stability of wild type (WT) CocE and thermostable mutants was performed through circular dichroism, which detects small changes in protein conformation and structure. Analysis by repeated CD measurements at increasing temperatures allows analysis of the thermodynamics and melting temperature (TM) of the protein, so long as the melting is reversible (i.e. the protein resumes it's original conformation upon cooling). […] However CD is still of value in determining the temperature to unfolding.

[5] = test system: cocaine-induced lethality; assay: In vivo potency of protection against cocaine-induced lethality; parameters: species or system NIH-Swiss mice; conditions: i.v. pretreatment 1 min prior to i.p. cocaine
[6] = test system: cocaine-induced lethality; assay: In vivo duration of protection against cocaine-induced lethality; parameters: species or system NIH-Swiss mice; conditions: 1 mg i.v.; cocaine 180 mg/kg i.p.
Description: In vivo protection against cocaine lethality. Male NIH-Swiss mice (25-32 g) were obtained from Harlan Inc. (Indianapolis, Ind.) and were housed in groups of 6 mice per cage. All mice were allowed ad libitum access to food and water, and were maintained on a 12-h light-dark cycle with lights on at 06.30 AM in a room kept at a temperature of 21-22° C. Experiments were performed in accordance with the Guide for the Care and Use of Laboratory Animals as adopted and promulgated by the National Institutes of Health. The experimental protocols were approved by the University Committee on the Use and Care of Animals at the University of Michigan.
Cocaine-induced toxicity was characterized by the occurrence of lethality, as defined by the cessation of observed movement and respiration. Mice were placed individually in Plexiglas observation chambers (16×28×20 cm high) to be habituated for 15 min before drug administration. Following intra-peritoneal (i.p.) cocaine administration, the mouse was immediately placed individually in the same chamber for observation. The presence or absence of lethality was recorded for 60 min following cocaine administration. The mouse was placed in a small restraint chamber (Outer tube diameter: 30 mm; Inner tube diameter: 24 mm) that left the tail exposed. The tail was cleansed with an alcohol wipe and a 30G1/2 precision glide needle (Fisher Scientific, Pittsburgh, Pa.) was inserted into one of the side veins for infusion. The i.v. injection volume of CocE or CocE mutant was 0.2 mL per mouse. Sterile gauze and pressure were applied to the injection site to staunch the bleeding.
Lethality was monitored following injection at 1, 5, 10, or 30 min, or 1, 2, 3, 4, 5 hours after enzyme administration. Each treatment used 8 mice to assess the percent of lethality (i.e., protection) in mice pretreated with a single dose of an esterase at a single time point.
These values were used to compare the degree of rightward shifts of cocaine's dose-response curve in the absence or presence of the enzyme pretreatment. In the time course study, a time point for duration of protection (i.e., 50% of lethality) was estimated by using each time course curve crossing 50% occurrence of lethality.
Evaluation of in vivo half life. CocE is administered IV to the tail vein in a volume of 0.2 ml. Animals are challenged with 180 mg/kg cocaine delivered intraperitoneally at a given time after CocE administration.

[7] = mouse, in vivo; cited from earlier work

B1: wt-CocE: cocaine esterase of Rhodococcus sp. MB 1, SEQ ID NO:1 (protein, listed as Rhodococcus sp.)
chain: MVDGNYSVASNVMVPMRDGVRLAVDLYRPDADGPVPVLLVRNPYDKFDVFAWSTQSTNWLEFVRDGYAVVIQDTRGLFASEGEFVPHVDDEADAEDTLSWILEQAWCDGNVGMFGVSYLGVTQWQAAVSGVGGLKAIAPSMASADLYRAPWYGPGGALSVEALLGWSALIGTGLITSRSDARPEDAADFVQLAAILNDVAGAASVTPLAEQPLLGRLIPWVIDQVVDHPDNDESWQSISLFERLGGLATPALITAGWYDGFVGESLRTFVAVKDNADARLVVGPWSHSNLTGRNADRKFGIAATYPIQEATTMHKAFFDRHLRGETDALAGVPKVRLFVMGIDEWRDETDWPLPDTAYTPFYLGGSGAANTSTGGGTLSTSISGTESADTYLYDPADPVPSLGGTLLFHNGDNGPADQRPIHDRDDVLCYSTEVLTDPVEVTGTVSARLFVSSSAVDTDFTAKLVDVFPDGRAIALCDGIVRMRYRETLVNPTLIEAGEIYEVAIDMLATSNVFLPGHRIMVQVSSSNFPKYDRNSNTGGVIAREQLEEMCTAVNRIHRGPEHPSHIVLPIIKR
- half-time of inactivation, τinact [1]: approximately 25 min
- Kcat(mol · s^−1 · mol^−1) [2]: 2323 mol · s^−1 · mol^−1
- temperature of inactivation [3]: 30-35 °C
- melting temperature [4]: approximately 39 °C
- protection against cocaine-induced lethality [5]: protected
- LT50, pretreatment time to 50% lethality [6]: approximately 14 min
- effective half-life in the blood stream [7]: ~10 min
